# Source: US20200345845A1 (RUBIUS THERAPEUTICS, published 2020)
# T1: CD20 (human, UniProt P11836 1-297)
# T1 construct: whole, on cells; Endogenous CD20 on lymphoma cell lines; also called CD20 on CD20-expressing cell lines (Raji, Ramos, Z138, Granta-519, Toledo, SU-DHL4, DOHH-2)
# T1 sequence (looked up): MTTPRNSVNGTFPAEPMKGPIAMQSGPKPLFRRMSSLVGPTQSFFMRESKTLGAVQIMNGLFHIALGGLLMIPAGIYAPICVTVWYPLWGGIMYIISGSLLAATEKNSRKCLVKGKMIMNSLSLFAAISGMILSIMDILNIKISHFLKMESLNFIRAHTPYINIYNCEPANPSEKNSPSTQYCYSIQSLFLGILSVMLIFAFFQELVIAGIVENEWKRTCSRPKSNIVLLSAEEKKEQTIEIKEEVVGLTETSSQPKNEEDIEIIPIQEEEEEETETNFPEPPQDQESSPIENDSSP
# B1: RCT-HA-GPA: control enucleated erythroid cells expressing on their surface the HA epitope tag fused to the N terminus of full-length GPA (other, not shown: small tags and cut ends)
# chain: LSTTEVAMHTSTSSSVTKSYISSQTNDTHKRDTYAATPRAHEVSEISVRTVYPPEEETGERVQLAHHFSEPEITLIIFGVMAGVIGTILLISYGIRRLIKKSPSDVKPLPSPDTDVPLSSVEIENPETSDQ
# notes: also called HA-GPA control RCT; control RCT-HA-GPA
# Columns and labels:
# [1] = molecular target: CD20 (human) (UniProt P11836); assay: flow cytometry, RCT binding to Toledo cells
# [2] = molecular target: CD20 (human) (UniProt P11836); assay: flow cytometry, RCT binding to SU-DHL4 cells
# [3] = molecular target: CD20 (human) (UniProt P11836); assay: flow cytometry, RCT binding to Granta-519 cells
# [4] = molecular target: CD20 (human) (UniProt P11836); assay: flow cytometry, RCT binding to Z138 cells
# [5] = molecular target: CD20 (human) (UniProt P11836); assay: cell-based or functional assay
# [6] = molecular target: PD-1 (UniProt Q15116); assay: cell-based or functional assay
# Chain of PD-1 (Q15116 25-288 limits assumed): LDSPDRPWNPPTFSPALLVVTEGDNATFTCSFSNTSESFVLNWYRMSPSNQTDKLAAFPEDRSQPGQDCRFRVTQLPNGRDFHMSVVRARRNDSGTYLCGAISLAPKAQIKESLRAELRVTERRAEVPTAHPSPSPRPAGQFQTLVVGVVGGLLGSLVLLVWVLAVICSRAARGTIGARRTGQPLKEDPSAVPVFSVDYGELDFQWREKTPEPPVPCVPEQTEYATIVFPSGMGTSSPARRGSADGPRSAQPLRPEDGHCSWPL
# [7] = molecular target: T1, CD20; assay: immunofluorescence of co-culture with Ramos cells
molecule,measurement,setting,value
"RCT-antiCD20: enucleated erythroid cells expressing on their surface a fusion protein of a rituximab CD20 scFv domain, an HA epitope tag and full-length GPA",Percent cells bound,[1],37.1%
same,Percent cells bound,[2],91.3%
same,Percent cells bound,[3],76%
same,Percent cells bound,[4],43.7%
same,apoptosis of Ramos cells after 48 hours of co-culture,[5],32%
"RCT-antiPD1: enucleated erythroid cells expressing a fusion protein of a pembrolizumab-based anti-PD-1 scFv domain, an epitope tag (HA or Flag) and full-length GPA",interferon-gamma secretion of PBMC in an antigen recall assay,[6],3 to 4 fold
B1,binding result,[7],no binding
